# Assay results as given in CN111635459A (BEIJING GUANGWEI BIOTECHNOLOGY CO LTD, dated 2020).
# B1: 对照抗体W3452-1.164.16-z11 (antibody, V domains shown)
# VH: QVQLQESGPGLVKPSETLSLTCTVSGFSLTNYHVYWIRQPPGKGLEWIGVMWNHGDTSYNSPLKSRVTISVDTSKSQFSLKLSSVTAADTAVYYCARGGYVPDYWGQGTMVTVSS
# VL: DIVMTQSPLSLPVTPGEPASISCRSSQSLVHSNAKTYLHWYLQKPGQSPQLLIYRVSNRFSGVPDRFSGSGSGTDFTLKISRVEAEDVGVYYCLQTTHFPYTFGQGTKLEIK
# Tests used:
# 人CD47抗原蛋白 = target: T1, 人CD47抗原蛋白 (human, UniProt Q08722 19-139, limits assumed); test: SPR (Biacore 3000), antibody captured by anti-human Fc on CM5 chip, CD47 antigen 200-3.125 nM as analyte
# T1 construct: The construct is not described; also called CD47蛋白
# U937细胞表面的CD47 = target: T2, U937细胞表面的CD47 (human, UniProt Q08722 19-323); test: flow cytometry on U937 cells, blocking of FITC-SIRPα (100 ng/mL) binding to cell-surface CD47; antibody 0.03-50 μg/mL
# T2 construct: whole, on cells; also called CD47 on U937 cells
# T2 sequence (Q08722 19-323): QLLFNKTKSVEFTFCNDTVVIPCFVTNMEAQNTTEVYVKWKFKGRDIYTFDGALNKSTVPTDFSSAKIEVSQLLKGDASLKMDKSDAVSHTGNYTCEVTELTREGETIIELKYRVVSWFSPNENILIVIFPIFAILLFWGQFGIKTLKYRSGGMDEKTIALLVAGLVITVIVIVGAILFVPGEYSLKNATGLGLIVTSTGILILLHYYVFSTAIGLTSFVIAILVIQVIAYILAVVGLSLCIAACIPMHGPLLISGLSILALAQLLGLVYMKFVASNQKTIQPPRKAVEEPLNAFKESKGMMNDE
# T1 sequence (Q08722 19-139 limits assumed): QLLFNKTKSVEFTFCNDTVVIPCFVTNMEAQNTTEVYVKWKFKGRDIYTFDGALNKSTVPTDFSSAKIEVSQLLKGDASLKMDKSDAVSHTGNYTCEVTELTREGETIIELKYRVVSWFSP
binder,measurement,setting,value
B1,Kd,人CD47抗原蛋白,0.0934 nM
same,koff,人CD47抗原蛋白,3.84e-05 s⁻¹
same,kon,人CD47抗原蛋白,411000 M⁻¹ s⁻¹
same,IC50,U937细胞表面的CD47,1.37 µg/mL
